Here are results for 109 sequences from the supplement of paper PMC9942255.

Several values for one entry are separate records, joined by “and”; a condition that tells them apart may be missing. Identical values can stand only once.

The test system of this data set is Bacillus subtilis DB104 (SP-AmyQ fusion secretion). The data set is described as follows: AmyQ secretion efficiency, weighted average sort bin (1 = best secretion, 10 = worst) (bin number (weighted average, 1-10)); higher = lower secretion efficiency. The gist of the method: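 A B. subtilis DB104 library carrying amyE-integrated fusions of designed signal peptides to mature AmyQ was encapsulated at about 0.3 cells per ~65 nL alginate bead with fluorescein-starch and grown about 13 h at room temperature. Following nile red staining, occupied beads were flow-sorted as large particles into 10 equally populated bins by green/red fluorescence ratio, and the bin amplicons were Illumina-sequenced. The secretion score is the read-frequency-weighted average bin number normalised to beads per bin, leaving out low-abundance sequences.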

MMKKGRSRQQLTATVLFGTCAVDVPGIISPKTAEAASQ: the AmyQ secretion efficiency turned out to be 7.68.

MKKLVLCVSILAVILSGVTVALTQLS gave an AmyQ secretion efficiency of 3.8.

The sequence MAIIIAIIAAVIVIAALITFEDDEDDDRNASPG gave an AmyQ secretion efficiency of 6.7.

In turn, MSTLVLCVSILAVILSGVALTQLS yielded an AmyQ secretion efficiency of 6.38.

MRKYTVIASILLSFLSVLSGGHHEWKAFPV showed an AmyQ secretion efficiency of 4.79.

MKKSQYFIVFICFFVLFSEHEEAAAAADS: the AmyQ secretion efficiency came out at 4.11.

MKKAAAVLLSLGLVFVFVYGAGHVAEAKTK yielded an AmyQ secretion efficiency of 2.4.

Regarding MSLWMSKTLVVLFTIVTFGLVSPPAALMADKP, the AmyQ secretion efficiency was 2.43.

Regarding MKRIRIPMTLALGAALTIAPLVLTVFAALSSFASAEEN, the AmyQ secretion efficiency amounted to 6.39.

Sequence MRKSLITLGLASVIGTKASAETL gave an AmyQ secretion efficiency of 5.6.

MKKWIYVVLVLSIAGIGGFSLHAASS registered an AmyQ secretion efficiency of 6.87.

MKKRITYSLLALLAVVAFAFTDSSKAKAASA displayed an AmyQ secretion efficiency of 2.18.

MRGKSAVLLSLIMLIAGFLISFVFQM came in with an AmyQ secretion efficiency of 6.98.

MPYRKRRRVLLLLVTGLFMSLFAVTATASAQTG: the AmyQ secretion efficiency stood at 1.13.

MLKKVILAAFILVGSTLGAFSFSSDASAARK came in with an AmyQ secretion efficiency of 2.12.

In turn, MLKKKWMVGLLAGCLAAGEEPYNAFATEN had an AmyQ secretion efficiency of 4.04.

Regarding MFNRLFRVCFLAALIMAFTLPNSHYAQKP, the AmyQ secretion efficiency stood at 6.53.

For MKRTWNTCLTALLSVLLVAGSVPFHAEAKKP, the AmyQ secretion efficiency was found to be 2.37.

For MRKKRVITCVMAASLTLGSLLPAGYATAATP, the AmyQ secretion efficiency was 2.04.

The sequence MKRFSTAYLLLGILCSAAVFLIGAPSSALGAEV registered an AmyQ secretion efficiency of 3.5.

MFKFKKNFLVGLSAALMSISLFSATASAADD gave an AmyQ secretion efficiency of 3.08.

MKKLRKKKIIGLLTVSIASPSFAAEK: the AmyQ secretion efficiency was 7.35.

On to MRPVFPLILSAVLFLSCFFGARQTEYSASKR, for which the AmyQ secretion efficiency is 8.3.

As to MLKKKWMVGLLAGCLAAGGFSYNRFATEN, the AmyQ secretion efficiency amounted to 6.33.

MRKKLKWLSFLLGFIILLFLFKYQASNNDS gave an AmyQ secretion efficiency of 7.34.

Regarding MTGWLIIAVSLAIAIVLFMYTKGEAKAAGM, the AmyQ secretion efficiency worked out at 7.08.

MTMLRKIIGWILLLCIIDDEAFTVIASGKEV had an AmyQ secretion efficiency of 5.2.

On to MRSYIKGTGRCKLGLILFVPTALADNS, for which the AmyQ secretion efficiency was found to be 6.59.

The sequence MKLAKRVSALTPSTTLAITNKAKEL showed an AmyQ secretion efficiency of 7.12.

As for MFNRLFRVCFLAALIMAFTLPNSVYMQKP, the AmyQ secretion efficiency was found to be 7.02.

The sequence MKKLVLCVSILAVILKRKRKKALTQLS registered an AmyQ secretion efficiency of 6.12.

Consider MKKTIMSFVAVAALSTTAFGAHASGKEI, for which the AmyQ secretion efficiency is 2.91.

MKKQSYSATTAVVLGSTLFAGAASAQSI showed an AmyQ secretion efficiency of 5.86.

MKLKSKLLLSCLALSTVFVATTIANEPTH registered an AmyQ secretion efficiency of 7.21.

Take MKKTIMSFVAVAALSTTAFGAHASAADD: the AmyQ secretion efficiency was determined as 2.13.

With MFKKHTISLLIIFLLASAVLAKPEEAHTV, the AmyQ secretion efficiency came to 4.88.

With MMIKQCKRCKKRKVFGTTAAHAEET, the AmyQ secretion efficiency amounted to 7.72.

The sequence MTMLRKIIGWILLLCIIPLFAFTVIASYKEV displayed an AmyQ secretion efficiency of 6.87.

Consider MKVPKTMLLSTAAGLLLSLTATSVSAEEE, for which the AmyQ secretion efficiency stood at 2.6.

For the sequence MKKKRLFIFSAILTLSIFAPNETFAQTA, the AmyQ secretion efficiency worked out at 2.43.

As to MLCVMMLLFSAIASFPVSAQAASR, the AmyQ secretion efficiency was 6.18.

For MKRIRIPMTLALGAALTIAPLSFASAADE, the AmyQ secretion efficiency stood at 2.12.

MLKRTSFVSSLFIFMAVLLIILTLPSGQAHAQSA displayed an AmyQ secretion efficiency of 1.9.

Take MLKKKWMVGLLAGCLAAGGFSYNCFATEN: the AmyQ secretion efficiency amounted to 3.91.

MRMLWRSLALCGLALTLAPCVQAAEP: the AmyQ secretion efficiency turned out to be 1.79.

Turning to “MNKFLKSNFRFLLAAALGISLLVLFVIFITFASSNFIKASND”, the AmyQ secretion efficiency worked out at 4.18.

For MPYLKRVLLLLVTGLFMSLFAVTATASLQTG, the AmyQ secretion efficiency stood at 1.81.

In turn, MKKAFILSAAAAVGLFTFGGVQQVSAKEL displayed an AmyQ secretion efficiency of 3.11.

In turn, MAIIIAIIAAVIVIAALITFNVRNNSPG yielded an AmyQ secretion efficiency of 6.02.

Regarding MTKRGIQAFAGGIILATAVLAAVFYLTDEDQAAAR, the AmyQ secretion efficiency was 4.37.

Consider MKRTWNVCLTALLSVLLVAGSVGFVAEAKKP, for which the AmyQ secretion efficiency worked out at 3.4.

Turning to MKKVLMAFIICLSLILSVLAAPPSGAKCESV, the AmyQ secretion efficiency is 3.94.

For MRKNNNLFFFFMTIFAFLTGLMMFGTITAASASPD, the AmyQ secretion efficiency came out at 3.7.

MKVLLSALLLLFEPSASGKKL returned an AmyQ secretion efficiency of 7.48.

For the sequence MTMLRKIIGWILLLCIIPLFAFTVIRSGKEV, the AmyQ secretion efficiency is 7.52.

With MKKLSLGVASAALGLALVGGGTWAAFN, the AmyQ secretion efficiency came to 6.

MKRQRLLVSLRVWMVFLMNWVTPDRKTAAAAVY displayed an AmyQ secretion efficiency of 6.95.

Sequence MTKKAWFLPLVCVLLISGWLAPAASASAQED had an AmyQ secretion efficiency of 2.97.

For MLKGIIRFLLVSFVLFFALSTGITGVQAAPA, the AmyQ secretion efficiency stood at 2.22.

Turning to MFKKHTISLLIIFLLASAVLAKPIEAHDD, the AmyQ secretion efficiency is 3.1.

In turn, MKKSQYFKRRKCFFVLFSVHPIAAAAADS showed an AmyQ secretion efficiency of 9.07.

Sequence MKLSVKTRQKTTVAAAAMTAKMYATAKGN came in with an AmyQ secretion efficiency of 7.48.

Turning to MKKAAAVLLSLGLVFGFSYGAGHVMEAKTK, the AmyQ secretion efficiency was 5.11.

The sequence MRPVFPLILSAVLFLSCFKKKRRTRASASKR gave an AmyQ secretion efficiency of 6.66.

The sequence MKLAKRVSALTPSTTLAITAKGKEL showed an AmyQ secretion efficiency of 7.3.

For the sequence MLCVMMLLFSAIASFPVSAQRKDQ, the AmyQ secretion efficiency stood at 6.75.

With MYGKIALTLCPAIVGSLLFFTAPASAHVS, the AmyQ secretion efficiency stood at 2.26.

In turn, MTGMLGSMLLITAGILVFFAVVVKDVFAAGL had an AmyQ secretion efficiency of 4.32.

MFSRKILLSSALSFGMLISAVPALAAGT returned an AmyQ secretion efficiency of 3.61.

Consider MTMLRKIIGWILLLCIIPLFAFTVINSGKEV, for which the AmyQ secretion efficiency worked out at 6.45.

In turn, MKKKLAAGLTASAIVGTTLVVTPAECATI had an AmyQ secretion efficiency of 4.47.

The sequence MTMLRKIIGWILLLCIIPLFAFTVIISGKEV showed an AmyQ secretion efficiency of 5.66.

The sequence MRKSLITLGLASVIGTSSFLIPFTSKTLSAETL yielded an AmyQ secretion efficiency of 4.7.

MRGKSAVLLSLIMLIAGFLIPFSFQM came in with an AmyQ secretion efficiency of 7.72.

As to MKRLFMKARRKKKAVVFVFAVKGAPAKAETH, the AmyQ secretion efficiency is 8.85.

In the case of MKRKKRGSKRTSALSLGLLVSAPTASFAAES, the AmyQ secretion efficiency stood at 6.79.

In turn, MKKKLAAGLTASAIVGTTLVVTPAEDATI showed an AmyQ secretion efficiency of 6.33.

MLCVMMLLFSAIASFPVSAQAAKK registered an AmyQ secretion efficiency of 6.38.

The sequence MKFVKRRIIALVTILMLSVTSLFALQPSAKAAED returned an AmyQ secretion efficiency of 2.86.

Regarding MTKLKMLSMLTVMIASLFIFSSQALFVQY, the AmyQ secretion efficiency worked out at 7.31.

Regarding MKKKLAAGLTASAIVGTTLVVTPEEAATI, the AmyQ secretion efficiency was determined as 5.83.

For MKVPKTMLLSTAAGLLLSLTATSVSSHYV, the AmyQ secretion efficiency was found to be 7.63.

Consider MRKKRLLTIYIMLLGLIAWFPGAAQAEEK, for which the AmyQ secretion efficiency turned out to be 3.47.

As for MKKRKRRNFKRFIAAFLVLALMIRRVPARVLAKST, the AmyQ secretion efficiency is 6.23.

In the case of MKIRKILLSSALSFGMLISAVPALAAKK, the AmyQ secretion efficiency was 1.84.

For MKSAKSVSALTPSTTLAITAKAKEL, the AmyQ secretion efficiency was determined as 6.91.

MKRLLSTLLIGIMLLTFAPSAFAKKR: the AmyQ secretion efficiency amounted to 2.03.

MGLGKKLSVAVAASFMSLSISLDEEDDEVQAAEG registered an AmyQ secretion efficiency of 1.62.

Sequence MNLRKILLSSALSLGMLVSAAPVLATSE showed an AmyQ secretion efficiency of 1.92.

In turn, MKKRLIAPMLLSAASLAFFAMSGSAQAAAE showed an AmyQ secretion efficiency of 2.56.

As for MKKELLASLVLCLSLSPLVSTNEVFAATT, the AmyQ secretion efficiency stood at 2.73.

With MKKKQVMLALTAAAGLGLTALHSAPAAKQAPL, the AmyQ secretion efficiency was found to be 4.93.

MLKKKWMVGLLAGCLAAGGFSYNTFATEN had an AmyQ secretion efficiency of 5.24.

As for MTLWMTSTLLVVLFTIVTFGLVSPPAALMADKP, the AmyQ secretion efficiency was determined as 5.58.

MKRKLLSSLAISASAPTASFAAES had an AmyQ secretion efficiency of 7.94.

For the sequence MKKKRLAAGLTASAIVGTTLVVTPAEAATI, the AmyQ secretion efficiency is 4.26 and 3.28.

In the case of MPVLLSALLLLLFAFEPSASGKKL, the AmyQ secretion efficiency is 6.19.

The sequence MLKKKWMVGLLAGCLAAGGFSYNEFATEN showed an AmyQ secretion efficiency of 6.42.

Turning to MKKKQVMLALTAAAGLGLTALHPGPSAKAAPL, the AmyQ secretion efficiency was found to be 1.84.

For the sequence MPYLKRVLLLLVTGLFMSLFAVTATPSAQTG, the AmyQ secretion efficiency came out at 4.75.

Turning to MRGKSAVLLSLIMLIAGFLISFMFQM, the AmyQ secretion efficiency is 7.73.

MKRSIRTGTYCLLITLLTMGGMIASPASAAGT returned an AmyQ secretion efficiency of 3.22.

With MKQFAITLSVLCALILLVPTLLVIPFVSAAEAGASV, the AmyQ secretion efficiency amounted to 3.34.

In turn, MMVCMKSIVRFLVSLIIGTFVISVPFMANAQSD showed an AmyQ secretion efficiency of 2.06.

Sequence MKSKGSIMACLILFSFTITTFINTETTSAFSN came in with an AmyQ secretion efficiency of 5.51.

Sequence MKRIRIPMTLALGAALTIAPLSFASVEEN displayed an AmyQ secretion efficiency of 6.71.

MKKSQYFIVFICFFVLFSVHPIAAACADS had an AmyQ secretion efficiency of 4.69.

Turning to MKLRKVRKGSVLSLGLLVSASPAFATSP, the AmyQ secretion efficiency worked out at 4.34.

With MKNMSCKLVVSVTLFFSFLTIGPLFHAQNS, the AmyQ secretion efficiency amounted to 5.19.
